The target in assay [1] is T1, Factor VIIIa (recombinant FVIII, Kogenate FS, activated with alpha-thrombin) (UniProt P00451 20-2351).
T1 construct: also called FVIIIa; cofactor
T1 sequence (looked up): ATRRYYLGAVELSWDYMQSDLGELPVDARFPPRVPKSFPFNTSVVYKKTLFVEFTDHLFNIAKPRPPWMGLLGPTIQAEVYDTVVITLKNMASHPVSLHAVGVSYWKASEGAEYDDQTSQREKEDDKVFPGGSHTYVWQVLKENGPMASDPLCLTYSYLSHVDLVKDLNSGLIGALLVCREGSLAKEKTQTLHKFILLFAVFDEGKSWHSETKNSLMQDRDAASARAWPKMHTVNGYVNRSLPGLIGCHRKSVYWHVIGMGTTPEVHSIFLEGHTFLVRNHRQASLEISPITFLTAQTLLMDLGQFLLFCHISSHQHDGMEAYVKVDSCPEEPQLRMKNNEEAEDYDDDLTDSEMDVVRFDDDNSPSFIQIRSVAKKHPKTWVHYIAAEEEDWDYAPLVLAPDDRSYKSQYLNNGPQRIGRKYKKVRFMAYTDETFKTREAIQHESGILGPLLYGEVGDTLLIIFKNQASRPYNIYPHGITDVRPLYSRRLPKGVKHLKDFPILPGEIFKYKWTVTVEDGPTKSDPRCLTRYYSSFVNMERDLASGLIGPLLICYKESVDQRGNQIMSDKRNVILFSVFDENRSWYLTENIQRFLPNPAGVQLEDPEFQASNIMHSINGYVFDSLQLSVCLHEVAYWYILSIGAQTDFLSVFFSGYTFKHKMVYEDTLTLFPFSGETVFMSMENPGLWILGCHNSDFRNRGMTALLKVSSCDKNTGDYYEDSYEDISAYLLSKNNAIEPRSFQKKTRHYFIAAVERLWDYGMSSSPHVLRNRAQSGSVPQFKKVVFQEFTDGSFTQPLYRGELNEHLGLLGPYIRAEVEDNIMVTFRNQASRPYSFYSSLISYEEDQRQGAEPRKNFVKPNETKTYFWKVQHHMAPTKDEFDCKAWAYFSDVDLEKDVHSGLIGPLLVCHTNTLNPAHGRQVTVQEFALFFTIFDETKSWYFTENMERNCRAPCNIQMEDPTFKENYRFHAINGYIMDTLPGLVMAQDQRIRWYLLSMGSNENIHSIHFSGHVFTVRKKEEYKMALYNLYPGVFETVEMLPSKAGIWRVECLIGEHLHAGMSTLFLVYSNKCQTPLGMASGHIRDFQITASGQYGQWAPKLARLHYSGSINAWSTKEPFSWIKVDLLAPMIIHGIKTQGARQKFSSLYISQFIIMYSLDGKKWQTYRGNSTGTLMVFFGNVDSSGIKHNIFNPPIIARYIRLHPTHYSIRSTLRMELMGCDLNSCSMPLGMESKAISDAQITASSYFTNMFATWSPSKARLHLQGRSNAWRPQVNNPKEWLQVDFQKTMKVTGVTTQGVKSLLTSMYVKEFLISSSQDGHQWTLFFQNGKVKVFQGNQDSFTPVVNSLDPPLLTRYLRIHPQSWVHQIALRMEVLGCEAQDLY
Briefly: same assay; ratio of KD-app of Catalyst Biosciences WT FIXa to KD-app of this FIXa.

Assay [2] deals with T1, Factor VIIIa (recombinant FVIII, …). As to the kind of experiment: apparent functional KD (KD-app): FXa generation by FIXa with FVIIIa titrated, PC/PS vesicles, saturating FX, fluorogenic Spectrafluor FXa.
In assay [3] the target is T2, antithrombin III (plasma purified human AT-III), used as the AT-III/unfractionated heparin complex (human, UniProt P01008 33-464).
T2 construct: also called AT-III/UFH
As to the kind of experiment: K0.5: AT-III/UFH titrated against FIXa, 10 s, residual cleavage of Mesyl-D-CHG-Gly-Arg-AMC.

For assay [4], the target named is T3, Factor VIIIa (recombinant FVIII, Kogenate FS, activated with alpha-thrombin) (UniProt P00451 20-2351).
T3 construct: also called FVIIIa
T3 sequence (looked up): T1 sequence (looked up)
As to the kind of experiment: functional cofactor affinity KD-app: fluorogenic FX activation (Xase) assay, FVIIIa titrated, PC/PS vesicles, saturating FX.

Assay [5] deals with T3, Factor VIIIa (recombinant FVIII, …). Briefly: ratio of KD-app of wild-type FIXa (Catalyst Biosciences WT, SEQ ID NO:3) to that of the variant, same Xase assay.
Assay [6] has as its target T4, plasma purified human AT-III (antithrombin III) (human, UniProt P01008 33-464).
T4 construct: also called AT-III/UFH (in complex with unfractionated heparin)
As to the kind of experiment: K0.5: AT-III/UFH titrated on FIXa, residual activity on fluorogenic substrate.

Residue numbers refer to the chain shown, from its start. Names and notes keep the numbering of the source.

The term IC50 denotes the concentration needed to halve the response being measured. High values mean weaker potency, low ones greater potency.

B1: FIXa-D104N/K106S/R318Y/R338E/E410N (enzyme)
chain 1: YNSGKLEEFVQGNLERECMEEKCSFEEAREVFENTERTTEFWKQYVDGDQCESNPCLNGGSCKDDINSYECWCPFGFEGKNCELDVTCNIKNGRCEQFCKNSANNSVVCSCTEGYRLAENQKSCEPAVPFPCGRVSVSQTSKLTR
chain 2: VVGGEDAKPGQFPWQVVLNGKVDAFCGGSIVNEKWIVTAAHCVETGVKITVVAGEHNIEETEHTEQKRNVIRIIPHHNYNAAINKYNHDIALLELDEPLVLNSYVTPICIADKEYTNIFLKFGSGYVSGWGRVFHKGYSALVLQYLRVPLVDRATCLESTKFTIYNNMFCAGFHEGGRDSCQGDSGGPHVTEVEGTSFLTGIISWGEECAMKGKYGIYTKVSRYVNWIKNKTKLT
For the molecule B1, in assay [1], the KD-WT/KD-mut was 7.7. In addition, in assay [2], the Kd stood at 12.4 nM.

B2: FIXa-D203N/F205T/K228N (enzyme)
chain 1: B1 chain 1 with N104D, S106K
chain 2: B1 chain 2 with D23N, F25T, K48N, Y138R, E158R, N230E
notes: also called D39N/F41T/K63N (chymotrypsin numbering)
Take B2: half-maximal inhibition in assay [3] (IC50) was put at 822 nM.

B3: FIXa-K228N/K247N/N249S/R318Y/R338E/T343R/E410N (enzyme)
chain 1: B1 chain 1 with N104D, S106K
chain 2: B1 chain 2 with K48N, K67N, N69S, T163R
notes: also called K63N/K82N/N84S/R150Y/R170E/T175R/E240N (chymotrypsin numbering)
Turning to B3, the Kd in assay [4] was 7.8 nM. For the same molecule, the KD-WT/KD-mut in assay [5] amounted to 12.2.

B4: FIXa-Y155F/K247N/N249S/R318Y/R338E/E410N (enzyme)
chain 1: B1 chain 1 with N104D, S106K
chain 2: B1 chain 2 with K67N, N69S
Regarding B4, the IC50 in assay [6] was 3880 nM.

B5: FIXa-K228N/R318Y/E410N (enzyme)
chain 1: B1 chain 1 with N104D, S106K
chain 2: B1 chain 2 with K48N, E158R
notes: also called K63N/R150Y/E240N (chymotrypsin numbering)
Molecule B5 returned an IC50 in assay [3] of 475 nM.

B6: FIXa-R318Y/R403E/E410N (enzyme)
chain 1: B1 chain 1 with N104D, S106K
chain 2: B1 chain 2 with E158R, R223E
notes: also called R150Y/R233E/E240N (chymotrypsin numbering)
B6 had an IC50 in assay [3] of 7070 nM.

B7: FIXa-R318Y/R338E/T343R/R403E/E410S (enzyme)
chain 1: B1 chain 1 with N104D, S106K
chain 2: B1 chain 2 with T163R, R223E, N230S
notes: also called R150Y/R170E/T175R/R233E/E240S (chymotrypsin numbering)
Turning to B7, in assay [4], the Kd is 23.2 nM. Moreover, the KD-WT/KD-mut in assay [5] is 4.1.

B8: FIXa-D203N/F205T/R318Y (enzyme)
chain 1: B1 chain 1 with N104D, S106K
chain 2: B1 chain 2 with D23N, F25T, E158R, N230E
notes: also called D39N/F41T/R150Y (chymotrypsin numbering)
Turning to B8, the IC50 in assay [3] came out at 7230 nM.

B9: FIXa-D203N/F205T/E410N (enzyme)
chain 1: B1 chain 1 with N104D, S106K
chain 2: B1 chain 2 with D23N, F25T, Y138R, E158R
notes: also called D39N/F41T/E240N (chymotrypsin numbering)
For the molecule B9, in assay [3], the IC50 worked out at 377 nM.

B10: FIXa-D104N/K106S/R318Y/R338E/E410N (enzyme)
chain 1: B1 chain 1
chain 2: B1 chain 2
notes: also called D104N/K106S/R318Y/E410N/R338E
B10 had an IC50 in assay [3] of 6330 nM.

B11: FIXa-R318Y/R338E/E410S (enzyme)
chain 1: B1 chain 1 with N104D, S106K
chain 2: B1 chain 2 with N230S
notes: also called R150Y/R170E/E240S
As to B11, the IC50 in assay [6] was 5400 nM.

B12: FIXa-R318Y/R338E/T412A (enzyme)
chain 1: B1 chain 1 with N104D, S106K
chain 2: B1 chain 2 with N230E, T232A
notes: also called R150Y/R170E/T242A
For the molecule B12, the IC50 in assay [6] worked out at 7660 nM.

B13: FIXa-Y155F/R318Y/T343R/E410N (enzyme)
chain 1: B1 chain 1 with N104D, S106K
chain 2: B1 chain 2 with E158R, T163R
B13: the Kd in assay [4] was found to be 38 nM. The KD-WT/KD-mut in assay [5] turned out to be 2.5.

B14: FIXa-Y155F/N260S/R318Y/R338E/R403E/E410N (enzyme)
chain 1: B1 chain 1 with N104D, S106K
chain 2: B1 chain 2 with N80S, R223E
As for B14, half-maximal inhibition in assay [6] (IC50) was put at 9700 nM.

B15: FIXa-D203N/F205T/R338E/R403E (enzyme)
chain 1: B1 chain 1 with N104D, S106K
chain 2: B1 chain 2 with D23N, F25T, Y138R, R223E, N230E
notes: also called D39N/F41T/R170E/R233E (chymotrypsin numbering)
In turn, B15 registered an IC50 in assay [3] of 1520 nM.

B16: FIXa-Y259F/K265T/Y345T (enzyme)
chain 1: B1 chain 1 with N104D, S106K
chain 2: B1 chain 2 with Y79F, K85T, Y138R, E158R, Y165T, N230E
notes: also called Y94F/K98T/Y177T
As to B16, the IC50 in assay [6] was determined as 6 nM.

B17: FIXa-K228N/R318Y/R338E/T343R/R403E/E410N (enzyme)
chain 1: B1 chain 1 with N104D, S106K
chain 2: B1 chain 2 with K48N, T163R, R223E
notes: also called K63N/R150Y/R170E/T175R/R233E/E240N (chymotrypsin numbering)
Regarding B17, in assay [4], the Kd came out at 17.5 nM. The KD-WT/KD-mut in assay [5] amounted to 5.4.

B18: FIXa-K247N/N249S/R338E/T343R/E410N (enzyme)
chain 1: B1 chain 1 with N104D, S106K
chain 2: B1 chain 2 with K67N, N69S, Y138R, T163R
notes: also called K82N/N84S/R170E/T175R/E240N (chymotrypsin numbering)
Turning to B18, the Kd in assay [4] stood at 14 nM. In assay [5], the KD-WT/KD-mut was determined as 6.8.

B19: FIXa-K228N/R338E/R403E (enzyme)
chain 1: B1 chain 1 with N104D, S106K
chain 2: B1 chain 2 with K48N, Y138R, R223E, N230E
notes: also called K63N/R170E/R233E (chymotrypsin numbering)
In assay [3], B19 had an IC50 of 1680 nM.

B20: FIXa-R318Y/T343R/R403E/E410N (enzyme)
chain 1: B1 chain 1 with N104D, S106K
chain 2: B1 chain 2 with E158R, T163R, R223E
notes: also called R150Y/T175R/R233E/E240N (chymotrypsin numbering)
For B20, the Kd in assay [4] was 84.1 nM. Moreover, the KD-WT/KD-mut in assay [5] worked out at 1.1.

B21: FIXa-D203N/F205T/R338A (enzyme)
chain 1: B1 chain 1 with N104D, S106K
chain 2: B1 chain 2 with D23N, F25T, Y138R, E158A, N230E
notes: also called D39N/F41T/R170A (chymotrypsin numbering)
B21 had an IC50 in assay [3] of 423 nM.

B22: FIXa-R338E/R403E/E410N (enzyme)
chain 1: B1 chain 1 with N104D, S106K
chain 2: B1 chain 2 with Y138R, R223E
notes: also called R170E/R233E/E240N (chymotrypsin numbering)
B22 displayed an IC50 in assay [3] of 2350 nM.

B23: FIXa-Y155F/K247N/N249S/R318Y/R338E/T343R/R403E/E410N (enzyme)
chain 1: B1 chain 1 with N104D, S106K
chain 2: B1 chain 2 with K67N, N69S, T163R, R223E
Consider B23, for which the Kd in assay [4] came out at 15.3 nM. Further, the KD-WT/KD-mut in assay [5] is 6.3.

B24: FIXa-Y155F/K247N/N249S/R318Y/R338E/T343R/E410N (enzyme)
chain 1: B1 chain 1 with N104D, S106K
chain 2: B1 chain 2 with K67N, N69S, T163R
With B24, the Kd in assay [4] is 13.9 nM. For the same molecule, in assay [5], the KD-WT/KD-mut was 6.9.

B25: FIXa-Y155F/K247N/N249S/R338E/T343R (enzyme)
chain 1: B1 chain 1 with N104D, S106K
chain 2: B1 chain 2 with K67N, N69S, Y138R, T163R, N230E
Regarding B25, the Kd in assay [4] turned out to be 15.4 nM. Besides, the KD-WT/KD-mut in assay [5] was found to be 6.2.

B26: FIXa-D203N/F205T/R338E (enzyme)
chain 1: B1 chain 1 with N104D, S106K
chain 2: B1 chain 2 with D23N, F25T, Y138R, N230E
notes: also called D39N/F41T/R170E (chymotrypsin numbering)
In assay [3], B26 had an IC50 of 1170 nM.

B27: FIXa-Y155F/K247N/N249S/R338E/E410N (enzyme)
chain 1: B1 chain 1 with N104D, S106K
chain 2: B1 chain 2 with K67N, N69S, Y138R
B27: the Kd in assay [4] worked out at 24.9 nM. In addition, the KD-WT/KD-mut in assay [5] is 3.8.

The record behind these values is patent publication US20210238260A1 (published 2021).
